Experimental data: patent publication EP4596582A1 (Sichuan Kelun-Biotech Biopharmaceutical Co., Ltd., dated 2025)

Columns and labels:
[1] = target: T1, human B7-H3 on human tumor cells (MCF-7, HT29, NCI-N87, HCC1806, HCC827) (human, UniProt Q5ZPR3 29-534); test: flow cytometry on HCC827 cells
T1 construct: whole, on cells
T1 sequence (looked up): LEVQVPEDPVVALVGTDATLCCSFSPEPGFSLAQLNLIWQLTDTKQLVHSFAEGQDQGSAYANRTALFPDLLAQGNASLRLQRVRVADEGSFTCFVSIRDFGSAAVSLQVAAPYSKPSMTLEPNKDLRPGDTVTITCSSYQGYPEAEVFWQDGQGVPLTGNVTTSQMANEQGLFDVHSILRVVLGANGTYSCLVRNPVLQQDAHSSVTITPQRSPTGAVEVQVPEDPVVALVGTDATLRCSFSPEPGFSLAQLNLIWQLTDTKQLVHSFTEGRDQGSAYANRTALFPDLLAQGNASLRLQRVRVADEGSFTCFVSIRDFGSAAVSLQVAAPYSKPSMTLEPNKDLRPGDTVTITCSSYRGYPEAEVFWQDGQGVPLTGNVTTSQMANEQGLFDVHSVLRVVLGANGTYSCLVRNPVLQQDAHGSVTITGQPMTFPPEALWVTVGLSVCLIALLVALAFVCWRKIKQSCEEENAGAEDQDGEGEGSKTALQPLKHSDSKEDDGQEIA

[2] = target: T2, human B7-H3-4Ig on CHO-S cells (CHO-S-human B7-H3-4Ig) (human, UniProt Q5ZPR3 29-534); test: flow cytometry on CHO-S-human B7-H3-4Ig cells
T2 construct: whole, on cells; also called CHO-S-B7-H3-4Ig
T2 sequence (looked up): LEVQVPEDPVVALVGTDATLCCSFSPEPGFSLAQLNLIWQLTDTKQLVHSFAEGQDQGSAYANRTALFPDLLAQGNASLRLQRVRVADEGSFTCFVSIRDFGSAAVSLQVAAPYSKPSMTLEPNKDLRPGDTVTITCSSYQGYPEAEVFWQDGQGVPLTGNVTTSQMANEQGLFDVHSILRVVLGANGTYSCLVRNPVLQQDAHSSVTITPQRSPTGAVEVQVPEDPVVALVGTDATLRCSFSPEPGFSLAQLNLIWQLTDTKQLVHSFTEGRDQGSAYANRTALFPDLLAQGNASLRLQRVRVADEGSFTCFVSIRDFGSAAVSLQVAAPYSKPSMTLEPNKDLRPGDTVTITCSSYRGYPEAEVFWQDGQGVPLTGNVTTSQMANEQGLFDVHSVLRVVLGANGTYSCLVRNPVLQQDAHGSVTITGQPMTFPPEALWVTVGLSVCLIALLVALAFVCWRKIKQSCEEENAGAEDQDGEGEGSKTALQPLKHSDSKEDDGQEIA

[3] = target: T3, rat B7-H3-2Ig-His protein (rat, UniProt Q7TPB4 29-248); test: BLI (ForteBio), antibody captured on Protein A sensor, antigen in solution
T3 construct: extracellular domain; also called rat B7-H3-his
T3 sequence: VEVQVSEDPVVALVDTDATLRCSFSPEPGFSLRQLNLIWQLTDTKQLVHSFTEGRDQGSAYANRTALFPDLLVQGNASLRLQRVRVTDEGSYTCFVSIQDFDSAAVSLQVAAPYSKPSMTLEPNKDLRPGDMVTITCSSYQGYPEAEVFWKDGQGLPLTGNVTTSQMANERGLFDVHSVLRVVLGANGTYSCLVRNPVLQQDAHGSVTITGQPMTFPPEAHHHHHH

[4] = target: T4, human B7-2-his (human, UniProt P42081 24-247, limits assumed); test: ELISA, antigen coated at 1 ug/ml
T4 construct: Bought protein; not shown: his tag
T4 sequence (looked up): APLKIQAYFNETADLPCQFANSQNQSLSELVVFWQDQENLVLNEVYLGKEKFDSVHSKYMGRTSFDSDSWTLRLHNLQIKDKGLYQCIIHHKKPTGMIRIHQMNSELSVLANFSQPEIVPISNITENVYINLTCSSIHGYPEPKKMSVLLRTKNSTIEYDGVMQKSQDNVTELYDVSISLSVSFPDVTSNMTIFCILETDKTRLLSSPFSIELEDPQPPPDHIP

[5] = target: T5, human B7-H2-his (human, UniProt O75144 19-256, limits assumed); test: ELISA, antigen coated at 1 ug/ml
T5 construct: Bought protein; not shown: his tag
T5 sequence (looked up): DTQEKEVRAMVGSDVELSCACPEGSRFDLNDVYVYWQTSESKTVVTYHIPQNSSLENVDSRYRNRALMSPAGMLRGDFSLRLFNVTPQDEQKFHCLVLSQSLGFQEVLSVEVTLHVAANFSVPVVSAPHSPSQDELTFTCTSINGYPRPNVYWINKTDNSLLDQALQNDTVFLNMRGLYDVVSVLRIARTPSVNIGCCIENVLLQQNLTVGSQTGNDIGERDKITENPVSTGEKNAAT

[6] = target: T6, human B7-H3-4Ig-His protein (human, UniProt Q5ZPR3 29-466); test: ELISA, antigen coated at 1 ug/ml
T6 construct: extracellular domain; Made in HEK293-EBNA cells
T6 sequence: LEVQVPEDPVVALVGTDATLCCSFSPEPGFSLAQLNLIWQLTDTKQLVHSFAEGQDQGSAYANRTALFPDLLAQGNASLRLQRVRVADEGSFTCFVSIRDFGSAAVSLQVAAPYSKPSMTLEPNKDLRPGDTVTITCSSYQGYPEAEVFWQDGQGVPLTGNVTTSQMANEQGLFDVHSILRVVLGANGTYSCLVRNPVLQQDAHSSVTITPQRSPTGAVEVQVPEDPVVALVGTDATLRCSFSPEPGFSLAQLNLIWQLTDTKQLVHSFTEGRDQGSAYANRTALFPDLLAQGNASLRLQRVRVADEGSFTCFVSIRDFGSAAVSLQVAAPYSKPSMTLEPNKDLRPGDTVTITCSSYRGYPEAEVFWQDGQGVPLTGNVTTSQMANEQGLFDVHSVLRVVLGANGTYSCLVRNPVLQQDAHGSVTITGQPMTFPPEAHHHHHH

[7] = target: T7, human B7-H3-2Ig on CHO-S cells (CHO-S-human B7-H3-2Ig) (human, UniProt Q5ZPR3 29-316); test: flow cytometry on CHO-S-human B7-H3-2Ig cells
T7 construct: also called CHO-S-B7-H3-2Ig
T7 sequence: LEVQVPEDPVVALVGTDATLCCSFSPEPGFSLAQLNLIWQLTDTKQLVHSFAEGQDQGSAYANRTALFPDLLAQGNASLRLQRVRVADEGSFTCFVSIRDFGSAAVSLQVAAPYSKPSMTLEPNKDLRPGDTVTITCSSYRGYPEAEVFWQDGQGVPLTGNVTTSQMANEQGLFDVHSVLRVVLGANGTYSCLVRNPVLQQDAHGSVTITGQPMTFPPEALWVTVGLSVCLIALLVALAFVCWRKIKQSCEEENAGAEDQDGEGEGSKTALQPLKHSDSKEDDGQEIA

[8] = target: T1, human B7-H3 on human tumor cells …; test: flow cytometry on HT29 cells
[9] = target: T8, rat B7-H3 on CHO-S cells (CHO-S-rat B7-H3) (rat, UniProt Q7TPB4 29-316); test: flow cytometry on CHO-S-rat B7-H3 cells
T8 construct: whole, on cells; also called rat B7-H3-overexpressed cells
T8 sequence (looked up): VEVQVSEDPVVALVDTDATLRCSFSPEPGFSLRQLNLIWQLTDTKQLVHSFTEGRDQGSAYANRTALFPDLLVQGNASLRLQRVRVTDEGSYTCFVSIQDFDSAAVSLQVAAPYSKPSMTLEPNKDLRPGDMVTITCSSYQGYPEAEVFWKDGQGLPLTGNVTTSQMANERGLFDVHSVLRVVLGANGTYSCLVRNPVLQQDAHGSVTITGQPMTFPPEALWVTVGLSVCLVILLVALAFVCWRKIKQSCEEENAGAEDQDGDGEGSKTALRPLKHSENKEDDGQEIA

B1: anti-human-B7-H3 human antibody 2#8890 (antibody, human IgG1, kappa, V domains shown)
VH: QVQLQESGPGLVQPSGTLSLTCAVSGGSDSSTNWWTWVRQSPGQGLEWIGEISPIGFTSYSPSLRSRVTISVDKSKTQFSLKLSSVTAADTAVYYCARDRLYFAFWGQGTLVTVSS
VL: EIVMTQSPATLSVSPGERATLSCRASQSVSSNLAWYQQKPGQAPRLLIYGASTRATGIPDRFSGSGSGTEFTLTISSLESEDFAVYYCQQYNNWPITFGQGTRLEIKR
EC50 [1]: 0.0123 µg/mL
EC50 [2]: 0.115 µg/mL
binding result [3]: no binding (tested: 200 nM highest concentration)
binding result [4]: no binding (tested: 10 ug/ml highest concentration)
binding result [5]: no binding (tested: 10 ug/ml highest concentration)
EC50 [6]: 0.00193 µg/mL
EC50 [7]: 0.0684 µg/mL
EC50 [8]: 0.00634 µg/mL
binding result [9]: no binding (tested: 10 ug/ml highest concentration)
